Measured values from article PMC6140455.

Tests used:
Experiment in all cases: fluorescence anisotropy
YTHDC2 YTH domain W1310A = biological target: T1, YTHDC2 YTH domain W1310A (Homo sapiens, UniProt Q9H6S0 1277-1430, W1310A)
T1 sequence: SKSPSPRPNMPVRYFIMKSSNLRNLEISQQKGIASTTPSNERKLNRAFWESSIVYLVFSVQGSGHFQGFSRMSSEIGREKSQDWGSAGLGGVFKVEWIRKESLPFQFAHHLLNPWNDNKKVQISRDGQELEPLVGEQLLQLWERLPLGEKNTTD

YTHDC2 YTH domain W1360A = biological target: T2, YTHDC2 YTH domain W1360A (Homo sapiens, UniProt Q9H6S0 1277-1430, W1360A)
T2 sequence: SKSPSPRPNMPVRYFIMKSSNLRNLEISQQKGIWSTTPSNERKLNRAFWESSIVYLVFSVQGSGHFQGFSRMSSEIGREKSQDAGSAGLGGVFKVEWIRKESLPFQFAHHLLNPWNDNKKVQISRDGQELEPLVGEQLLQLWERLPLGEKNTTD

YTHDC2 YTH domain = biological target: T3, YTHDC2 YTH domain (Homo sapiens, UniProt Q9H6S0 1277-1430)
T3 sequence: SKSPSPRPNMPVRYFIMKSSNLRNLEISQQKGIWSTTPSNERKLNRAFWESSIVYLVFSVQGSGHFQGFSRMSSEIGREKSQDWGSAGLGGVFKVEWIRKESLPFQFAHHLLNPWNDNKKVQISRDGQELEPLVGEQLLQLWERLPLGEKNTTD

## CCGGACUGU (ssRNA, N6-methyladenosine at position 5) [GGm6ACU 9-nt RNA]
YTHDC2 YTH domain W1310A
  binding result: no binding
YTHDC2 YTH domain W1360A
  binding result: no binding
YTHDC2 YTH domain
  Kd: 3.2 ± 0.3 µM
